In the nanobody polyreactivity screen of Harvey et al. (2022):

Assay: yeast display, Sf9 membrane polyspecificity reagent, FACS + sequencing; frameworks hold sequencing errors
In short: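 Nanobodies from a synthetic yeast display library (Saccharomyces cerevisiae BJ5465), induced 36–48 hours with galactose, were stained 1 hour at 4 °C with 10% biotinylated, detergent-solubilized Sf9 membrane reagent, enriched on streptavidin microbeads, then FACS-sorted. Anti-HA (expression) and streptavidin (reagent binding) fluorescence set low and high (top ~1%) gates. Polyreactivity labels come from the gate of origin. Genes were colony-PCR amplified, MiSeq 2 × 250 sequenced and filtered by CDR length.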

Sequence	polyreactivity (PSR sort gate)
QVQLVESGGGLVQAGGSLRLSCAASGFIFTANAMGWYRQAPGKEMELVAAISRSGGRTYYADSVKGRFTISRDNAKNTVYLQMNSLKPEDTAVYYCAAPYRSYDWYDYWGQGTQVTVSS	high polyreactivity
QVQLVESGGVLVQAGGSLRLSCAASGSTFSVNVMGWSRQAPGKERELVAAINSGGSTDYADSVKGRLTISRDNAKNTVYLQMNSLKPEYTAVYYCNAYDIVIYDYWGQGTQVTVSS	low polyreactivity
QVQLVESGGGLVQAGGSLRLSCAASGLIFYLYAMGWYRQAPGKERELVAAITSGGGSTYYADSVKGRFTHSRDHAKNTVYLQMNSLKPEDTGVYYCAARLVLYITVVYEDDYWGQGTQVTVSS	low polyreactivity
QVQLVESGGGLVQAGGSLRLSCAASGSTFTLYAMGWYRQAPGKERELVATITGSGGSTNYADSVKGRFTISRDNAKNTVYLQMNSLKPEDTAVYYCAADYAVYSFTEFNYWGQGSQVTVSS	high polyreactivity
QVQLVESGGGLVQAGGRLRLSCAASGFIIVYYAAMGWYRQAPGKERELVAAISSRDDSTTYADSVKGRFTISRDNAKNTVYLQMNSLKPEDTAVYYCNADLGGFYYVYAYNYWGQGTQVTVSS	low polyreactivity
QVQLVESGGGLVQAGGSLRLSCAASGRISQGYAMGWYRQAPGKERELVPGISRSGGSTYYADSVKGRFTISPDNAKNTVYLQMHSLKPEDTAVYYCAAQSWYGFPNYYWGQGSQVTVSS	high polyreactivity
QVQLVESGGGLVQAGGSLRLSCAASGRTFWGYVMGWYRQAPGKERELVAAISRGDSTYYADSVKGRFTISRDNAKNTVYLQMNSLKPEDTAVYYCAKPGYYVRYGYWGQGTQVTVSS	high polyreactivity
QVQLVESGGGLVQAGGSLRLSCAASGSTFPRNAMGWYRQAPGKERELVAAISGRGVRTYYADSVKGRFTISRDNAKNTVHLQMNSLKPEDTAVYYCAASRGKGVGLAYDYWGQGTQVTVSS	high polyreactivity
QVHLVESGGGLVKAGGSLRLSCAASGLTFSYYARGWSRQPPGKEMELVAANSWSGGSTYYADSVKGRFTISRDNAKNTVYLQMNSLKPEDTAVYDCAVRPSDGVIFSKGYDHWGQGTQVTVSS	low polyreactivity
QVHLVESGGGLVQAGGSLRLSCAASGSTFPWYARGWYRKAPGKERELVAAISGSSSTTYYADSVKGRFTISRDNAMNTVYLQMNSLKPEDTAVYYCNAVTTSGSGYGYWGQGTQVTVSS	low polyreactivity
QVQLVESGGGLVQAGGSLRLSCAASGSTKYYVMGWYRQAPGKERELVAAISRGSSTYYADSVKGRFTISRDNAKNTVYLQMNSLKPEDTAVYYCAARGPWQAPYDYWGQGTQVTVSS	high polyreactivity
QVQLVESGGGLVQAGGSLRYICAASGFTFRPKVMGWYRQAHGKERELVAAISGSGGSTYYADSVKGRFTISRDNAKNTVYLQMNSLKPEDTAVYYSKDFPAFYDFGYWGQGTQVTVSS	high polyreactivity
QVQLVESGGGLVQAGGSLRLSCAASGSISAVNTMGWYRQAPGKERELVATISYSTASTYYADSVKGRFTISRDNAKITVYLQMNCLKPEDTAVYFCAADAYFDTWYDYWGQGTQVTVSS	low polyreactivity
QVQLVESGGGLVQAGGSLRLSCAASGRIFRLYAMGWYRQAPGKEREFVATITWIGGRTYYADSVKGRFTISRDTAKNTVYLQMNSLKPEDTAVYYCAADPGYTYEYWGQGTQVTVSS	low polyreactivity
QVQLVESGGGLVQAGGSLRLSCAASGIIFPRYVMGWYRQAPGKERELVAAINRSGGSTYYADSVKGRFTISRDYAKNTVYLQMNSLKPEDTAVYYCAALDVRSYRGGYWGQGTQVTVSS	high polyreactivity
QVQLVESGGGLVQAGGSLRLSCAASGRTFPWYTMGWYRQAPGKERELVAAITRSSGSAYYADSVKGRFTISRDTAKNPVYLQMNSLKQEDTAVYYCAARYWVAGFRGRPYDYWGQGTQVTVSS	high polyreactivity
